Data on five molecules can be found in paper PMC10954469, “Molecular and thermodynamic determinants of self-assembly and hetero-oligomerization in the enterobacterial thermo-osmo-regulatory protein H-NS” (Nucleic Acids Research, 2024).

To fix the notation:
T1: Cnu, co-repressor of the Hha family (E. coli, UniProt P64467 1-71)
T1 construct: Cnu, a member of the Hha family in E. coli; harbors a sole tryptophan (W67)
T1 sequence (looked up): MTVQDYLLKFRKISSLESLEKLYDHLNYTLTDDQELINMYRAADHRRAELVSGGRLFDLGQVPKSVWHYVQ

B1: H-NS (histone-like or heat-stable nucleoid structuring protein) (natural protein, E. coli (uropathogenic))
chain: MSEALKILNNIRTLRAQARECTLETLEEMLEKLEVVVNERREEESAAAAEVEERTRKLQQYREMLIADGIDPNELLNSLAAVKSGTKAKRAQRPAKYSYVDENGETKTWTGQGRTPAVIKKAMDEQGKSLDDFLIKQ
notes: H-NS from uropathogenic E. coli, whole protein as printed in the methods; Expressed as the fusion H-NS:intein:CBD and released by cleavage with beta-mercaptoethanol; also called WT H-NS; wild-type H-NS; source: E. coli BL21(DE3), pTXB1 vector, purified (chitin column, intein-mediated cleavage, Superdex 200 SEC)
B2: H-NS (histone-like or heat-stable nucleoid structuring protein), wild type (natural protein, uropathogenic E. coli)
chain: B1 chain
notes: H-NS from uropathogenic E. coli, 137 residues as printed; Polydisperse in solution: monomers, dimers, tetramers and octamers; Expressed as H-NS:intein:CBD fusion; also called H-NS WT; wild-type H-NS; source: E. coli BL21(DE3), pTXB1 vector, purified (chitin column, intein cleavage, Superdex 200 SEC)
B3: H-NS Y61E, phosphomimetic mutant (natural protein)
chain: B1 chain with Y61E
notes: H-NS from uropathogenic E. coli; also called Y61E mutant; source: E. coli BL21(DE3), pTXB1 vector, purified following identical protocols as H-NS
B4: Y61Em (Y61E/W109F H-NS) (natural protein)
chain: B1 chain with Y61E, W109F
notes: H-NS from uropathogenic E. coli; source: E. coli BL21(DE3), pTXB1 vector, purified following identical protocols as H-NS
B5: H-NSm (W109F H-NS), tryptophan null variant of H-NS (natural protein)
chain: B1 chain with W109F
notes: H-NS from uropathogenic E. coli; also called H-NS tryptophan variant; source: E. coli BL21(DE3), pTXB1 vector, purified following identical protocols as H-NS

Series [1] deals with the molecule itself. The experiment in a line: AUC + other: differential scanning calorimetry; parameters of the thermodynamic model that best capture the AUC and DSC observations; defined at the reference temperature TD 333 K; 150 mM ionic strength, pH 7; dimer to monomers. On the technique in general: Differential scanning calorimetry records heat flow against a reference as temperature is scanned.

Series [2] deals with the molecule itself. In words: AUC + other: differential scanning calorimetry; parameters of the thermodynamic model that best capture the AUC and DSC observations; defined at the reference temperature TD 333 K; 300 mM ionic strength, pH 7; dimer to monomers.
Series [3] deals with the molecule itself. In words: AUC + other: differential scanning calorimetry; thermodynamic model set semi-quantitatively to match AUC populations (20 °C) and DSC thermograms; constant predicted by the model for 13 °C; 300 mM ionic strength, pH 7; dimer to monomers.
Series [4] concerns the molecule itself. In words: AUC + other: differential scanning calorimetry; thermodynamic model set semi-quantitatively to match AUC populations (20 °C) and DSC thermograms; constant predicted by the model for 25 °C; 300 mM ionic strength, pH 7; dimer to monomers.
Series [5] concerns the molecule itself. The experiment in a line: AUC + other: differential scanning calorimetry; thermodynamic model set semi-quantitatively to match AUC populations (20 °C) and DSC thermograms; constant predicted by the model for 37 °C; 300 mM ionic strength, pH 7; dimer to monomers.
Series [6] concerns the molecule itself. The experiment in a line: AUC + other: differential scanning calorimetry; parameters of the thermodynamic model that best capture the AUC and DSC observations; defined at the reference temperature TO 333 K; 150 mM ionic strength, pH 7; tetramer to dimers and octamer to tetramers (one constant KO for both steps).
Series [7] deals with the molecule itself. In words: AUC + other: differential scanning calorimetry; parameters of the thermodynamic model that best capture the AUC and DSC observations; defined at the reference temperature TO 333 K; 300 mM ionic strength, pH 7; tetramer to dimers and octamer to tetramers (one constant KO for both steps).
Series [8] deals with the molecule itself. The experiment in a line: AUC + other: differential scanning calorimetry; thermodynamic model set semi-quantitatively to match AUC populations (20 °C) and DSC thermograms; constant predicted by the model for 13 °C; 150 mM ionic strength, pH 7; tetramer to dimers and octamer to tetramers (one constant KO for both steps).
Series [9] deals with the molecule itself. The experiment in a line: AUC + other: differential scanning calorimetry; thermodynamic model set semi-quantitatively to match AUC populations (20 °C) and DSC thermograms; constant predicted by the model for 13 °C; 300 mM ionic strength, pH 7; tetramer to dimers and octamer to tetramers (one constant KO for both steps).
Series [10] concerns the molecule itself. In words: AUC + other: differential scanning calorimetry; thermodynamic model set semi-quantitatively to match AUC populations (20 °C) and DSC thermograms; constant predicted by the model for 25 °C; 300 mM ionic strength, pH 7; tetramer to dimers and octamer to tetramers (one constant KO for both steps).
Series [11] deals with the molecule itself. In words: AUC + other: differential scanning calorimetry; thermodynamic model set semi-quantitatively to match AUC populations (20 °C) and DSC thermograms; constant predicted by the model for 37 °C; 300 mM ionic strength, pH 7; tetramer to dimers and octamer to tetramers (one constant KO for both steps).
Series [12] deals with the molecule itself. In words: AUC + other: differential scanning calorimetry; thermodynamic model (octamer, tetramer, dimer, folded and unfolded monomer) whose parameters were set semi-quantitatively to match AUC populations (20 °C) and DSC thermograms; constant predicted by the model for 13 °C; 150 mM ionic strength, pH 7; dimer to monomers.
Series [13] concerns the molecule itself. The experiment in a line: AUC + other: differential scanning calorimetry; thermodynamic model brought into semi-quantitative agreement with AUC populations and DSC curves; 150 mM ionic strength, pH 7; constant at 25°C; dimer to monomers.
Series [14] concerns the molecule itself. The experiment in a line: AUC + other: differential scanning calorimetry; thermodynamic model brought into semi-quantitative agreement with AUC populations and DSC curves; 150 mM ionic strength, pH 7; constant at 37°C; dimer to monomers.
Series [15] deals with the molecule itself. The experiment in a line: AUC + other: differential scanning calorimetry; thermodynamic model brought into semi-quantitative agreement with AUC populations and DSC curves; 150 mM ionic strength, pH 7; constant at 25°C; tetramer to dimers and octamer to tetramers (one constant KO for both).
Series [16] concerns the molecule itself. In words: AUC + other: differential scanning calorimetry; thermodynamic model brought into semi-quantitative agreement with AUC populations and DSC curves; 150 mM ionic strength, pH 7; constant at 37°C; tetramer to dimers and octamer to tetramers (one constant KO for both).
Series [17] deals with the molecule itself. In words: AUC; sedimentation velocity, 20°C, 150 mM ionic strength, pH 7, 15-200 μM protein, c(s) analysis with SEDFIT.
The target in series [18] is T1, Cnu, co-repressor of the Hha family. The experiment in a line: other fluorescence titration; tryptophan (W67) emission of 2 μM Cnu, excitation 295 nm, with 30 nM to 50 μM tryptophan-free H-NS variant; intensity-averaged wavenumber; Hill equation, apparent (K1/2); 150 mM ionic strength, pH 7, 25°C. The settings on record: both partners purified.
The target of series [19] is B2. In words: fluorescence polarisation; steady-state tryptophan (W109) anisotropy of 2 μM wild-type H-NS with 30 nM to 50 μM H-NSm, 150 mM ionic strength, pH 7, 13, 25 and 37°C. The note with it: both partners purified.
Series [20] has as its target T1, Cnu, co-repressor of the Hha family. In words: other fluorescence titration; tryptophan (W67) emission of 2 μM Cnu, excitation 295 nm, with 30 nM to 50 μM tryptophan-free H-NS variant; intensity-averaged wavenumber; Hill equation, apparent (K1/2); 300 mM ionic strength, pH 7, 25°C. The settings on record: both partners purified.

In general, stoichiometry N refers to a count of units in the complex or per binding partner.

Substitutions are numbered along the chain they refer to. Names and notes keep the numbering of the source.

On to B1, for which the Kd in [1] was 1000 µM; in [2] it was 100 µM; in series [3] it was 1.19 µM; in series [4], 4.22 µM; in series [5], 13.6 µM; in series [6], 100 µM. Moreover, the Kd is 100 µM in series [7]; 17 µM in series [8]; 9.39 µM in series [9]; 18.5 µM in series [10]; 34.5 µM in series [11]; 0.0238 µM in [12].

Consider B2, for which the Kd in [13] was ~0.5 µM; in series [14], ~8 µM; in [15], ~30 µM; in series [16], ~45 µM.

As for B3, the “stoichiometry N” value in series [17] was 2.

Turning to B4, the Kd in [18] stood at 1.6 µM.

As to B5, the binding result in [19] is recorded as “binds”. In addition, the Kd came to 4 µM in [18] and 12 µM in [20].
